The text below walks through data of patent publication US20190367961A1, “MOGROL GLYCOSYLTRANSFERASE AND GENE ENCODING SAME” (SUNTORY HOLDINGS LIMITED, priority 2014, published 2019).

This data set is described as follows: glucose transfer (glycosylation) activity for mogrol, product analysed by LC-IT-TOF-MS. The settings on record: same enzyme conditions (0.2 mM mogrol, 2 mM UDP-glucose, 30° C., 3 hours). Type of data set: biochemical. The protocol:
Purification was carried out using the HisTag of the recombinant protein according to an ordinary method, and glucose transfer activity for mogrol prepared by hydrolyzing a Siraitia grosvenorii extract (Takemoto, T. et al. (1983) YAKUGAKU ZASSHI 103(11), 1167-1173) was evaluated. The enzyme reaction composition was 0.2 mM mogrol as a glucose acceptor, 2 mM UDP-glucose as a glucose donor, and 50 mM calcium phosphate buffer (pH 7.5); an enzyme solution was added thereto, which was then reacted at 30° C. for 3 hours; and the product was analyzed using LC-IT-TOF-MS (Shimadzu Corporation).
Stevia-derived UGT85C2 and UGT73E1 were expressed in the same manner as in the above method. The product amount was measured under the above enzyme conditions to determine relative activity by dividing it by the expressed protein amount. As a result, the relative activities of stevia-derived UGT85C2 and UGT73E1 when the activity of SgUGT74-943 was set to 1 were 0.35 and 0.22, respectively. The glycosylation activity of Siraitia grosvenorii-derived SgUGT74-943 was confirmed to be nearly 3 times higher than those of stevia-derived UGT85C2 and UGT73E1 (FIG. 4).

B1: UGT85C2: steviol glycosyltransferase derived from stevia, known to glycosylate mogrol (protein, UniProt Q6VAB0 1-481, looked up)
UDP-glycosyltransferase 85C2: MDAMATTEKKPHVIFIPFPAQSHIKAMLKLAQLLHHKGLQITFVNTDFIHNQFLESSGPHCLDGAPGFRFETIPDGVSHSPEASIPIRESLLRSIETNFLDRFIDLVTKLPDPPTCIISDGFLSVFTIDAAKKLGIPVMMYWTLAACGFMGFYHIHSLIEKGFAPLKDASYLTNGYLDTVIDWVPGMEGIRLKDFPLDWSTDLNDKVLMFTTEAPQRSHKVSHHIFHTFDELEPSIIKTLSLRYNHIYTIGPLQLLLDQIPEEKKQTGITSLHGYSLVKEEPECFQWLQSKEPNSVVYVNFGSTTVMSLEDMTEFGWGLANSNHYFLWIIRSNLVIGENAVLPPELEEHIKKRGFIASWCSQEKVLKHPSVGGFLTHCGWGSTIESLSAGVPMICWPYSWDQLTNCRYICKEWEVGLEMGTKVKRDEVKRLVQELMGEGGHKMRNKAKDWKEKARIAIAPNGSSSLNIDKMVKEITVLARN
B1: the “relative activity (product amount divided by expressed protein amount) when the activity of SgUGT74-943 was set to 1” value is recorded as 0.35.

B2: UGT73E1: steviol glycosyltransferase derived from stevia, known to glycosylate mogrol (protein, UniProt Q6VAA9 1-495, looked up)
UDP-glycosyltransferase 73E1: MSPKMVAPPTNLHFVLFPLMAQGHLVPMVDIARILAQRGATVTIITTPYHANRVRPVISRAIATNLKIQLLELQLRSTEAGLPEGCESFDQLPSFEYWKNISTAIDLLQQPAEDLLRELSPPPDCIISDFLFPWTTDVARRLNIPRLVFNGPGCFYLLCIHVAITSNILGENEPVSSNTERVVLPGLPDRIEVTKLQIVGSSRPANVDEMGSWLRAVEAEKASFGIVVNTFEELEPEYVEEYKTVKDKKMWCIGPVSLCNKTGPDLAERGNKAAITEHNCLKWLDERKLGSVLYVCLGSLARISAAQAIELGLGLESINRPFIWCVRNETDELKTWFLDGFEERVRDRGLIVHGWAPQVLILSHPTIGGFLTHCGWNSTIESITAGVPMITWPFFADQFLNEAFIVEVLKIGVRIGVERACLFGEEDKVGVLVKKEDVKKAVECLMDEDEDGDQRRKRVIELAKMAKIAMAEGGSSYENVSSLIRDVTETVRAPH
Consider B2, for which the “relative activity (product amount divided by expressed protein amount) when the activity of SgUGT74-943 was set to 1” value is reported as 0.22.
